Experimental findings from patent US20060069055, “Delivery of polynucleotides” (published 2006) are described below.

Series [1] concerns the target T1, HIF-1 complex (HIF-1alpha containing) (UniProt Q16665;P27540 Q16665:1-826,P27540:2-789). The series can be described thus: competition. Conditions: protein: extract; tags: nuclear extract, TransAM HIF-1 kit Active Motif 47096. On the procedure: (§1) To assess the relative affinities of oligonucleotides for a HIF-1α containing complex, the HIF-1 TransAM assay (Active Motif, Catalog # 47096) was utilized. The assay was performed according to manufacturer's instructions. Briefly, a double-stranded oligonucletide containing the hypoxia response element (HRE) was immobilized on a 96-well plate. A nuclear extract containing HIF-1 alpha complexes was incubated and allowed to bind to the immobilized oligonucleotide. The unbound material was washed away and the bound HIF-1α detected using an antibody that specificially recognizes HIF-1α. The anti-HIF-1α antibody was detected by a secondary antibody labeled with horseradish peroxidase (HRP), and the amount of HRP in each well was measured using a colorimetric substrate reaction and read using a microplate spectrophotometer.
(§2) The ability of candidate decoy molecules to compete for binding of HIF-1α to the HRE element immobilized on the plate were measured and compared to reveal relative binding affinities. Candidate decoys were added in increasing molar ratios (relative to the amount of oligo immobilized on the plate) to compete for binding to the HIF-1α containing complexes. […] A well containing a competing decoy able to bind HIF-1α with high affinity would give a lower absorbance reading as compared to a decoy with low affinity for HIF-1α. All potential decoys were then compared and ranked in order to assess their relative binding affinities.
(§3) The screen was conducted using different decoy concentrations. For each UV absorbance reading, normalization was done by calculating the ratio of absorbance readings of sample vs. wild type control. The bigger ratio represents less competition of binding with HIF-1α when compared with wild-type control. The smaller (smaller than 1.0 or close to 1.0) ratios represent better binding or better competition.

Series [2] deals with T1, HIF-1 complex (HIF-1alpha containing). In words: competition; smaller is better competition; TransAM plate assay. The note with it: protein: extract; tags: nuclear extract, TransAM HIF-1 kit Active Motif 47096. The procedure: as §1
The ability of candidate decoy molecules to compete for binding of HIF-1α to the HRE element immobilized on the plate were measured and compared to reveal relative binding affinities. […] A well containing a competing decoy able to bind HIF-1α with high affinity would give a lower absorbance reading as compared to a decoy with low affinity for HIF-1α. […]
The screen was conducted using different decoy concentrations. For each UV absorbance reading, normalization was done by calculating the ratio of absorbance readings of sample vs. wild type control. […]

For series [3] the target is unchanged. The series can be described thus: competition; TransAM; higher ratio = poorer competition; scramble 2.19. The note with it: protein: extract; tags: nuclear extract, TransAM HIF-1 kit Active Motif 47096. The procedure: as §1, §2, §3
Series [4] has as its target T2, NF-kB p50/p50 homodimer (Homo sapiens, UniProt P19838 P19838:1-433). In words: EMSA. The note with it: protein: extract; tags: nuclear extract of LPS-stimulated THP-1 cells; chain copies: 2 (stated). The source says: (§4) The EMSA assay was employed to characterize oligonucleotide decoys for the NF-κB transcription factor. […] Using the above modified oligonucleotides to compete for binding for the above-mentioned NF-κB family members, it was possible to compare the binding affinity of these oligonucleotides against the high affinity radiolabeled probe and each other. This assay has also enabled the design of a decoy which selectively binds particular members of the NF-κB family. By using increasing concentrations of various oligonucleotides, it was observed that, by deleting or changing targeted residues in the binding site, it was possible to specifically decrease the binding of the decoy molecule to p50/p50 homodimers, while retaining the affinity for p65/p50 and cRel/p50 heterodimers.
(§5) The NF-κB gel shift assays (EMSA) were performed as follows. A double-stranded oligonucleotide containing a consensus NF-κB binding site (5′ […].GGC 3′) (SEQ ID NO: 26) was end-labeled with γ³²P-ATP using T4 Polynucleotide Kinase (Promega). […] The dried gels were imaged and quantitated using a Typhoon 8600 Phosphorlmager (Amersham) and ImageQuant software. […]

Series [5] has as its target T2, NF-kB p50/p50 homodimer. The series can be described thus: EMSA; competition against labelled probe 113/114. Conditions: protein: extract; tags: nuclear extract of LPS-stimulated THP-1 cells; chain copies: 2 (stated).
Source text: as §4, §5

T2 sequence (P19838 1-433, one chain of several): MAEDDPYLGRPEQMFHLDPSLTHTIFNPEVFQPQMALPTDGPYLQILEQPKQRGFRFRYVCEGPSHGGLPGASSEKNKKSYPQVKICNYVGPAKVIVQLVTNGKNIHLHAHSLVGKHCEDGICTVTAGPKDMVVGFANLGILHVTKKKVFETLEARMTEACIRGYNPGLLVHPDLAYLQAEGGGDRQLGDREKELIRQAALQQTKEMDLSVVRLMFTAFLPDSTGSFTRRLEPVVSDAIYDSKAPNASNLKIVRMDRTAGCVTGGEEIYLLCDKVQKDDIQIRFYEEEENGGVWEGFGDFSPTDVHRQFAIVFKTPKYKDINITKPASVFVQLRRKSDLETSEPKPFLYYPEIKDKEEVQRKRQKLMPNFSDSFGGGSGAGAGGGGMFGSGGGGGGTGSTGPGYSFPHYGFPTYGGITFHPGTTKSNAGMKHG
T1 sequence (Q16665 whole entry, chain 1 of 2): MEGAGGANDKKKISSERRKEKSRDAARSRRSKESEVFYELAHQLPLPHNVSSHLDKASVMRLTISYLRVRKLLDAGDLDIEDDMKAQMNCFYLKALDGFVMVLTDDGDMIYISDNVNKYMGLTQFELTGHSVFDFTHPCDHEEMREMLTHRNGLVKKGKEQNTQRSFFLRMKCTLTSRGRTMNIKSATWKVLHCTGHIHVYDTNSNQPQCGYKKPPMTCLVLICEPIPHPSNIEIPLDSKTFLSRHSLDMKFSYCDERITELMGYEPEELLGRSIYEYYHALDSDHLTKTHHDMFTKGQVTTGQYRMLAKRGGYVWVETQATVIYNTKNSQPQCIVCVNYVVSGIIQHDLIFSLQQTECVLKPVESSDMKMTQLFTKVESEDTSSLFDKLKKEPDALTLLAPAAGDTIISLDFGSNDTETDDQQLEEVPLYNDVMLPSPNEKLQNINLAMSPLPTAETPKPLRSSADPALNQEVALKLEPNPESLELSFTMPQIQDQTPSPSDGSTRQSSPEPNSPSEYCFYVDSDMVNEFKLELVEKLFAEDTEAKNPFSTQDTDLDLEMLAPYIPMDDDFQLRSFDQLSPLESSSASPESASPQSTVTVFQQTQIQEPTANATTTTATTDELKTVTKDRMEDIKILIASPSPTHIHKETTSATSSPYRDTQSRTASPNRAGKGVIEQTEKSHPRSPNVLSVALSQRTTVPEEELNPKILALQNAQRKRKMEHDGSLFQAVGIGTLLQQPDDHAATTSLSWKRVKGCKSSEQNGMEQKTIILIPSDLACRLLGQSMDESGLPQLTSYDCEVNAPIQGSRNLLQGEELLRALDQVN
T1 sequence (P27540 2-789, chain 2 of 2): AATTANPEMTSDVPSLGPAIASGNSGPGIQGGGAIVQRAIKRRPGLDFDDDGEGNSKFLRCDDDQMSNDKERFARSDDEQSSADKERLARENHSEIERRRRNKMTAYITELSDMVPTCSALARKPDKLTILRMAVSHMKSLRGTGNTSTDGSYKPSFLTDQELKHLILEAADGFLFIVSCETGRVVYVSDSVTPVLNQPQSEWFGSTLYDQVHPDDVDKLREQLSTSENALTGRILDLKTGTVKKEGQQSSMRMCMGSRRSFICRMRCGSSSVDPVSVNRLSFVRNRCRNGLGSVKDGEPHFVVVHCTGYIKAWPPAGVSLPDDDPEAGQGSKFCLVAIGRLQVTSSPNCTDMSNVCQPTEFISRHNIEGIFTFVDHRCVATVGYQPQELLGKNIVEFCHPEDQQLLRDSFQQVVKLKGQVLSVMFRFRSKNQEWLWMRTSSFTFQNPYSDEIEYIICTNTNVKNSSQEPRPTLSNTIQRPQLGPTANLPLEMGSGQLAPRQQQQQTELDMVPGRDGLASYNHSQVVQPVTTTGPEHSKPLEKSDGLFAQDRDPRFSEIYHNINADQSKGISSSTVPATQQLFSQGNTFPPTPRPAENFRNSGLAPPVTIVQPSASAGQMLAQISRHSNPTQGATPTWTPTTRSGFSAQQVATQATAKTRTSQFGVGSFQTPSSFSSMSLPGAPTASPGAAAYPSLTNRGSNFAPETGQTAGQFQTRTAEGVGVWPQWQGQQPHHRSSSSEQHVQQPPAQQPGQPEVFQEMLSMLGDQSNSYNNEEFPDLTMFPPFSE

B1: HIF decoy 871/872 (dsDNA)
DNA 1: ACCGTACGTGCTGCCA
DNA 2: TGGCAGCACGTACGGT
On to B1, for which the binding signal in series [1] was 1.87 ratio to wild-type control absorbance.

B2: HIF decoy 819/820 double (dsDNA)
DNA 1: GAAATACGTGCGCTTTGTGTGTACGTGCAGGAA
DNA 2: TTCCTGCACGTACACACAAAGCGCACGTATTTC
Consider B2, for which the binding signal in series [2] is 0.88 ratio to wild-type control absorbance.

B3: HIF decoy 863/864 (dsDNA)
DNA 1: AGCAGACGTGCAGGAT
DNA 2: ATCCTGCACGTCTGCT
As for B3, in series [3], the binding signal is 2.02 ratio to wild-type control.

B4: HIF decoy 853/854 (dsDNA)
DNA 1: TTGCTTACGTGCGCCCGG
DNA 2: CCGGGCGCACGTAAGCAA
As for B4, the binding signal in series [1] was 1.62 ratio to wild-type control absorbance.

B5: HIF decoy 845/846 (dsDNA)
DNA 1: GAGCGTACGTGCCTCAGG
DNA 2: CCTGAGGCACGTACGCTC
Regarding B5, the binding signal in series [1] was 1.57 ratio to wild-type control absorbance.

B6: HIF decoy 855/856 (dsDNA)
DNA 1: GTGTGTACGTGCAGGAAA
DNA 2: TTTCCTGCACGTACACAC
Regarding B6, the binding signal in series [1] was 1.21 ratio to wild-type control absorbance.

B7: HIF decoy 849/850 (dsDNA)
DNA 1: GCCTACACGTGGGTTCCC
DNA 2: GGGAACCCACGTGTAGGC
On to B7, for which the binding signal in series [1] was 1.96 ratio to wild-type control absorbance.

B8: HIF decoy 821/822 (dsDNA)
DNA 1: CGCGAGCGTACGTGCCTCAGG
DNA 2: CCTGAGGCACGTACGCTCGCG
For the molecule B8, in series [1], the binding signal was 1.26 ratio to wild-type control absorbance.

B9: HIF decoy 805/806 (dsDNA)
DNA 1: CCCCCTCGGACGTGACTCGGACCAC
DNA 2: GTGGTCCGAGTCACGTCCGAGGGGG
Take B9: the binding signal in series [1] is 1.09 ratio to wild-type control absorbance.

B10: HIF decoy 841/842 double (dsDNA)
DNA 1: AGCGGACGTGCAGAAGTTGCACGTCCTCT
DNA 2: AGAGGACGTGCAACTTCTGCACGTCCGCT
Consider B10, for which the binding signal in series [1] was 0.95 ratio to wild-type control absorbance.

B11: HIF decoy 879/880 (dsDNA)
DNA 1: GGCTGCTGCAGACGTGCAGGTC
DNA 2: GACCTGCACGTCTGCAGCAGCC
For the molecule B11, the binding signal in series [1] was 1.98 ratio to wild-type control absorbance.

B12: HIF decoy 887/888 (dsDNA)
DNA 1: GGCTGCACCGTACGTGCTGATC
DNA 2: GATCAGCACGTACGGTGCAGCC
In the case of B12, the binding signal in series [1] is 1.94 ratio to wild-type control absorbance.

B13: HIF decoy 859/860 (dsDNA)
DNA 1: ACCGTACGTGCTGATC
DNA 2: GATCAGCACGTACGGT
With B13, the binding signal in series [1] was 1.85 ratio to wild-type control absorbance.

B14: 153/154 PO/H11 (dsDNA)
DNA 1: AGTTGAGGACTTTCCAGGC
DNA 2: GCCTGGAAAGTCCTCAACT
modifications: strand 153 PO; strand 154 PS at the 11 most 3' linkages
As to B14, in series [4], the IC50 worked out at 40 fold molar excess.

B15: HIF decoy 891/892 (dsDNA)
DNA 1: GGCTGCTGCATACGTGCAGGTC
DNA 2: GACCTGCACGTATGCAGCAGCC
Consider B15, for which the binding signal in series [1] was 1.6 ratio to wild-type control absorbance.

B16: 153/154 H5/PO (dsDNA)
DNA 1: AGTTGAGGACTTTCCAGGC
DNA 2: GCCTGGAAAGTCCTCAACT
modifications: PS at the 5 most 3' linkages of strand 153, strand 154 PO
For B16, the IC50 in series [5] stood at 83 fold molar excess.

B17: HIF decoy 843/844 (dsDNA)
DNA 1: GTGCATACGTGGGCTCCA
DNA 2: TGGAGCCCACGTATGCAC
For B17, the binding signal in series [1] was 1.81 ratio to wild-type control absorbance.

B18: HIF decoy 869/870 (dsDNA)
DNA 1: AGCAGACGTGCAGGGT
DNA 2: ACCCTGCACGTCTGCT
As for B18, the binding signal in series [1] was 1.93 ratio to wild-type control absorbance.

B19: HIF decoy 873/874 (dsDNA)
DNA 1: TCCGTACGTGCTGCGT
DNA 2: ACGCAGCACGTACGGA
For the molecule B19, the binding signal in series [3] was 2.04 ratio to wild-type control.

B20: HIF decoy 801/802 (dsDNA)
DNA 1: GCCCTACGTGCTGTCTCA
DNA 2: TGAGACAGCACGTAGGGC
For the molecule B20, in series [1], the binding signal is 1.83 ratio to wild-type control absorbance.

B21: 153/154 PO (dsDNA)
DNA 1: AGTTGAGGACTTTCCAGGC
DNA 2: GCCTGGAAAGTCCTCAACT
B21: in series [5], the IC50 is 92 fold molar excess.

B22: HIF decoy 851/852 (dsDNA)
DNA 1: CGGAGTACGTGACGGAGC
DNA 2: GCTCCGTCACGTACTCCG
For the molecule B22, in series [1], the binding signal is 1.08 ratio to wild-type control absorbance.

B23: HIF decoy 865/866 (dsDNA)
DNA 1: AGCAGACGTGCAGGCA
DNA 2: TGCCTGCACGTCTGCT
As to B23, the binding signal in series [3] is 2.01 ratio to wild-type control.
